Measured values taken from patent publication US20260274913A1 (Amgen, published 2026).

Assays:
cyno TREM-1-His protein = molecular target: T1, cyno TREM-1-His protein (cynomolgus monkey, UniProt A0A2K5VHG8 21-204); experiment: BLI (Octet HTX), antibody captured on anti-human Fc sensor, cyno TREM-1-His as analyte, 1:1 model
T1 construct: extracellular domain; Soluble analyte of the Octet assay; not shown: His tag
T1 sequence: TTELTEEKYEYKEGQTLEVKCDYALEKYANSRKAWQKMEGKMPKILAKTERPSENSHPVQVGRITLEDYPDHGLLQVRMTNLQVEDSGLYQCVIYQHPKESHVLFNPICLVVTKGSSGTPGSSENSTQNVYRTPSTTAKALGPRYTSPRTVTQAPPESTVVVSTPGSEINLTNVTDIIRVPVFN
Protocol: Briefly, TREM-1 hybridoma supernatants normalized to 10 μg/mL in DMEM null media were prepared by diluting 1:10 in OCTET® assay buffer (10 mM Tris, 0.1% Triton X-100, 150 mM NaCl, 1 mM CaCl₂), 0.1 mg/mL BSA, at pH 7.6) to a final test concentration of 1 μg/mL. Amine reactive second-generation AR2G Biosensors (Molecular Devices) were pre-incubated in 200 μL nanopore water for a minimum of 10 minutes at room temperature before use. The AR2G Biosensors were then activated for 5 minutes in a solution of 20 mM EDC (1-Ethyl-3-[3-dimethylaminopropyl]carbodiimide hydrochloride) (ForteBio) pre-mixed with 10 mM NHS (N-hydroxysulfosuccinimide) (ForteBio) in nanopore water. An in-house generated mouse anti-human Fc monoclonal antibody was coupled to the AR2G Biosensors at 10 μg/mL in 10 mM sodium acetate buffer at pH 5 for 5 minutes, quenched with 1M ethanolamine at pH 8.5 for 5 minutes, and then used to capture antibody from solution. The TREM-1 test antibodies were loaded onto the Biosensors for 5 minutes, and baseline measurements were taken for 1 minute. […] The association of recombinant human TREM-1 with the antibody-loaded sensor was measured for 5 minutes, followed by dissociation in OCTET® buffer for 10 minutes. Biosensors were then regenerated with 10 mM glycine at pH 1.7, reloaded with the same TREM-1 antibodies on the same sensors for 5 minutes, and the same method was used to measure association and dissociation of cyno TREM-1-His protein. Data was referenced using a 0 nM analyte reference sensor. Kinetic analysis was performed using a 1:1 Langmuir model with mass transfer in Genedata Screener software.

cyno TREM-1 = molecular target: T2, cyno TREM-1 (cynomolgus monkey, UniProt A0A2K5VHG8 21-233); experiment: cell-based or functional assay
T2 sequence: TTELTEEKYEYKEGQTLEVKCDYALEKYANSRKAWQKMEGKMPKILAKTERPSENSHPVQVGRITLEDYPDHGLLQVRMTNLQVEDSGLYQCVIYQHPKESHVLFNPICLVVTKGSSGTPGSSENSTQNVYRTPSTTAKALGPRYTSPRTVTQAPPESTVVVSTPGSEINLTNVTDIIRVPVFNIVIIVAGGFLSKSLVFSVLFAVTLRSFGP

B1: 44A5 (antibody, V domains shown)
VH: EVQLLESGGGLVQPGGSLRLSCAASGFTFSTYAMNWVRQAPGKGLEWVSTVSGSGRPTYYADSVKGRFTISRDNSKNTLYLQMNSLRAEDTAVYYCAKAYYSNYLFDYWGQGTLVTVSS
VL: EIVMTQSPAILSVSPGERATLSCRASQSVSSNLAWYQQKPGQAPRLLIYGASTRATGVPARFSGGGSGTDFTLTISSLQSEDFAVYYCQHCKTWPPLTFGGGTKVDLK
**Q.** B1 was tested. Which Kd (cyno TREM-1-His protein) did it give?
**A.** The Kd was 2020 pM.

**Q.** What about the “Ab IC50-Cyno PBMC (Trial 1), TNFα release induced by cyno PGLYRP1/PGN” value (cyno TREM-1) of the same binder?
**A.** The value was 57.9 pM.

**Q.** And the “Ab IC50-Cyno PBMC (Trial 2), TNFα release induced by cyno PGLYRP1/PGN” value (cyno TREM-1)?
**A.** The value was 9.1 pM.

B2: 66B8 (antibody, V domains shown)
VH: QVQLVQSGAEVKKPGASVKVSCKASGYTFTGYYMHWVRQAPGQGLEWMGWFKPNSGVTNYAQKFQGRVTMSRDTSISTAYMELSSLRSDDTAVYYCARAGYSTSWKDWFDPWGQGTLVTVSS
VL: DIQMTQFPSSVSASVGDRVTITCRASQGISRWLAWYQQKQGKAPKLLIYMVSSLQSGVPSRFSGSGSGTDFTLTISSLQPEDFATYYCQQSHNFPITFGQGTRLDIK
**Q.** What does the source list for B2?
**A.** Kd (cyno TREM-1-His protein): 1640 pM; Ab IC50-Cyno PBMC (Trial 1), TNFα release induced by cyno PGLYRP1/PGN (cyno TREM-1): 114 pM; Ab IC50-Cyno PBMC (Trial 2), TNFα release induced by cyno PGLYRP1/PGN (cyno TREM-1): 23.2 pM

B3: 61G5 (antibody, V domains shown)
VH: QVQLVQSGAEVKKPGASVKVSCKASGYTFTSYDINWVRQATGQGLEWMGWMNPNSGNSGSVKKFRDRVTMTRNTSISTAYMELSSLRSEDTAVYYCVRLIGYSSAWKWSFQHWGQGTLVTVSS
VL: DIQMTQSPSSLSASVGDRVTITCQASRDISKYLNWYQQKPGKAPKLQIYDASNLETGVPSRFSGSGSGTDFTFTISSLQPEDIATYYCQHYDNIPITFGQGTRLEIK
**Q.** How did the Kd (cyno TREM-1-His protein) turn out when B3 was run?
**A.** The Kd was 1310 pM.

**Q.** And the “Ab IC50-Cyno PBMC (Trial 2), TNFα release induced by cyno PGLYRP1/PGN” value (cyno TREM-1)?
**A.** Its value is 2340 pM.

B4: 3E12 (antibody, V domains shown)
VH: QVQLVQSGAEVKKPGASVKVSCKASGYTFNGYYIHWVRQAPGQGLEWMGWLNPNSGGANYAQKFQGWVTMTRDTSISTAYMELSRLTSDDTAVYYCARDQRKTTVTPFEYWGQGTLVTVSS
VL: SYELTQPPSVSVSPGQTASITCSGDKLGERNVCWYQLKPGQSPILVIYQDNKRPSGIPERFSGSKSGNTAILTISGTQAMDEADYYCQAWDRNVVFGGGTKLTVL
**Q.** B4 was tested. Which Kd (cyno TREM-1-His protein) did it give?
**A.** The Kd was 1800 pM.

B5: 64D7 (antibody, V domains shown)
VH: QVQLVQSGAEVKKPGASVKVSCKASGYTFTSYDINWVRQATGQGLEWMGWMNPNRGNTGYVKKFQGRVTMTRNTSISTAYMELSSLRSEDTAVYYCARRRAVYRSSWEWYFDLWGRGTLVTVSS
VL: DTQMTQSPSSLSASEGDRVTITCQASQDIFNDLNWYQEKPGKAPKLLIYHASNLETGVPSRFSGSGSGTDYTFTISSLQPEDIATYYCQQYGNLPLTFGGGTKVEIK
**Q.** Which results are given for B5?
**A.** Kd (cyno TREM-1-His protein): 680 pM; Ab IC50-Cyno PBMC (Trial 1), TNFα release induced by cyno PGLYRP1/PGN (cyno TREM-1): 6940 pM; Ab IC50-Cyno PBMC (Trial 2), TNFα release induced by cyno PGLYRP1/PGN (cyno TREM-1): 780 pM

B6: 49A2 (antibody, V domains shown)
VH: EVQLVESGGGLVQPGGSLRLSCAASGFTFSSNWMSWVRQAPGKGLDWMASMKQDGSEIYYVDSVKGRFTISRDNAKNSLHLQMNSLRAEDTAVYYCVRGGWRFESWGQGALVTVSS
VL: EIVMTQSPATLSVSPGERATLSCRASQSVSSNLAWYQQKSGQAPRLLIYGASIRATGIPARVSGSGSGTEFTFTISSLQSEDFAVYYCQQYKNWPLTLGGGTKVEIK
notes: also called 19333
**Q.** Which results are given for B6?
**A.** Kd (cyno TREM-1-His protein): 1870 pM; Ab IC50-Cyno PBMC (Trial 1), TNFα release induced by cyno PGLYRP1/PGN (cyno TREM-1): 732 pM; Ab IC50-Cyno PBMC (Trial 2), TNFα release induced by cyno PGLYRP1/PGN (cyno TREM-1): 266 pM

B7: 57F5 (antibody, V domains shown)
VH: EVQLLESGGGLVQPGGSLRLSCAASGFTFSSYAMTWVRQAPGRGLQWVSTISGSGSNTYYADSVKGRFTISRDNSKNTLYLQMSSLRAEDTAVYYCAKEGGSNRYFHHWGQGTLVTISS
VL: DIQMTQSPSSLSASVGDRVTITCRASQSISSNLNWYQQKPGKAPKLLISAASNLQSGVPSRFSGSESGTDFTLTISSLQSEDFATYYCQQSDSLPLTFGGGTKVEIN
**Q.** B7 was tested. Which Kd (cyno TREM-1-His protein) did it give?
**A.** The Kd was < 290 pM.

B8: 57C10 (antibody, V domains shown)
VH: QVQLVQSGAEVKKPGASVKVSCKASGYTFTRYDINWVRQATGQGLEWMGWLNPNSGNTGQTQKFRGRVTMTRNTSINTAYMELSSLRSEDTAVYYCARGGYTSAWRWYFDLWGRGTLVTVSS
VL: DIQMTQSPSSLSASVGDRVTITCQASQDINNHLNWYQQKPGKAPKLLIYDVSNLETGVPSSFSGSGCGTDFTFTISSLQPEDIATYFCQQYDKLPLTFGGGTKVEIE
**Q.** How did the Kd (cyno TREM-1-His protein) turn out when B8 was run?
**A.** Its Kd is 1280 pM.

**Q.** What about the “Ab IC50-Cyno PBMC (Trial 1), TNFα release induced by cyno PGLYRP1/PGN” value (cyno TREM-1) of the same binder?
**A.** Its value is 154 pM.

**Q.** And the “Ab IC50-Cyno PBMC (Trial 2), TNFα release induced by cyno PGLYRP1/PGN” value (cyno TREM-1)?
**A.** Its value is 28.4 pM.

B9: 61B12 (antibody, V domains shown)
VH: QVQLVQSGAEVTKPGASVKVSCKASGYTFTRYDINWVRQATGQGLEWMGWMNPNSGNSGSVQKFRGRVTMTRNTSITTVYMELSSLRSDDTAVYYCARGGISSSWHWAFDIWGQGTMVTVSS
VL: DIQMTQSPSSLSASVGDRVTITCQASQDINNHLNWYQQKPGKAPKLLIYGAYTLETGVPSRFSGSGSGTDFTFTISSLQPEDIATYYCQQYDKLPLTFGGGTKVEIK
**Q.** With B9 as the binder, how does the Kd (cyno TREM-1-His protein) read?
**A.** Its Kd is 1270 pM.

**Q.** What about the “Ab IC50-Cyno PBMC (Trial 1), TNFα release induced by cyno PGLYRP1/PGN” value (cyno TREM-1) of the same binder?
**A.** The value was 46.9 pM.

**Q.** And the “Ab IC50-Cyno PBMC (Trial 2), TNFα release induced by cyno PGLYRP1/PGN” value (cyno TREM-1)?
**A.** The value was 17.4 pM.

B10: 63F8 (antibody, V domains shown)
VH: QVQLVQSGAEVKKPGASVKVSCKASGYTFTSYDINWVRQATGQGLEWMGRMNPKSGNAGYVQNFRGRVTMTRNTSISTAYMELSSLRSEDTAVYYCARGGRTSIWSFVFDYWGQGTLVTVSS
VL: DIQMTQSPSSLSASVGDRVTITCQASQDISKHLNWYQQKPGKAPKLLIYDTSNLETGVPSRFSGSGSGTDFTFTISSLQPEDIATYNCQQYDKLPLTFGGGTKVEIK
**Q.** What does the source list for B10?
**A.** Kd (cyno TREM-1-His protein): 856 pM; Ab IC50-Cyno PBMC (Trial 1), TNFα release induced by cyno PGLYRP1/PGN (cyno TREM-1): 22.6 pM; Ab IC50-Cyno PBMC (Trial 2), TNFα release induced by cyno PGLYRP1/PGN (cyno TREM-1): 16.1 pM

B11: 34D1 (antibody, V domains shown)
VH: QVQLVQSGAEVKKPGASVKVSCKASGYTFTRYDINWVRQATGQGLEWMGWMNPNSGNSGSVQKFRGRVTMTRNTSIHIAYMELSSLRSEDTAVYYCARGGYTSSWRWYFDLWGRGTLVTVSS
VL: DIQMTQSPSSLSASVGDRVNITCQASQDIRKHLNWYQQKPGKAPNLLIYDAANLETGVPSRFSGSGSGTAFTFTISSLQPEDIATYYCQHYANLPITFGQGTRLEIK
**Q.** With B11 as the binder, how does the Kd (cyno TREM-1-His protein) read?
**A.** Its Kd is 4970 pM.

B12: 50A12 (antibody, V domains shown)
VH: EVQLVESGGGLVQPGGSLRLSCAASGFTFSSYWMSWVRQAPGKGLEWVANIKQDGSEEYYVDSVKGRFTISRDNAKNSLFLQMNSLRAEDTAVYYCARDYGDSFDYWGQGTLVTVSS
VL: DIQMTQSPSSVSASVGDRVTITCRASQGIRKWLAWYQQKPGRAPKLLIYAASRLQSGVPSRFSGSGSGTDFTLTISSLRPEDFATYYCLQAHGFPWTFGQGTKVEIK
**Q.** What does the source list for B12?
**A.** Kd (cyno TREM-1-His protein): 6420 pM; Ab IC50-Cyno PBMC (Trial 1), TNFα release induced by cyno PGLYRP1/PGN (cyno TREM-1): 2000 pM

B13: 30H2 (antibody, V domains shown)
VH: EVQVLESGGGLVQPGESLRLSCTASGFTFNAYAMSWVRQAPGKGLEWVSTISGSGSTTYYADSVKGRFTISRDNSKNTLDLQMNSLRAADTAVYYCAKVAGSNFFFDHWGQGTLVTVSS
VL: EIVMTQSPATLSVSPGERATLSCRASQSINSNLAWYQQKPGQAPRLLIYGAYTRATGIPDRFSGSGSGTEFTLTISSLQSEDFAVYYCQEFIMWPPWTFGLGTQVEIK
notes: also called 19330
**Q.** How did the Kd (cyno TREM-1-His protein) turn out when B13 was run?
**A.** Its Kd is 5700 pM.

**Q.** And the “Ab IC50-Cyno PBMC (Trial 1), TNFα release induced by cyno PGLYRP1/PGN” value (cyno TREM-1)?
**A.** The value was 3770 pM.

B14: 46H7 (antibody, V domains shown)
VH: EVQLLESGGGMVQPGGSLRLSCAVSGFTFSRYAMSWVRQAPGKGLEWVSEMRGSSGSTYYADSVKGRFTISRDNSKNTLYLQMNSLRVEDTAIYYCAKEFSSNSLFDYWGQGTLVTVSS
VL: EIVMTQSPATLSVSPGERATLSCRASQSVNSNLAWYQQKPGRAPRLLIYGASTRATGIPARFSGSGSGTEFTLTISSLQSEDFAVYYCQQFYNWPPWTFGQGTKVEIK
**Q.** How did the “Ab IC50-Cyno PBMC (Trial 1), TNFα release induced by cyno PGLYRP1/PGN” value (cyno TREM-1) turn out when B14 was run?
**A.** Its value is 95.1 pM.

**Q.** What about the “Ab IC50-Cyno PBMC (Trial 2), TNFα release induced by cyno PGLYRP1/PGN” value (cyno TREM-1) of the same binder?
**A.** The value was 9.7 pM.
